Laboratory results from patent publication US20090181003A1, “Regulation of S6 Kinsase Protein Activity and Related Methods” (priority 2005, published 2009).

Key:
S6K2 = molecular target: T1, S6K2 (Homo sapiens, UniProt Q9UBS0); experiment: In vitro GST pulldown of p300 GST-fusion fragments with recombinant S6K2; assay type: binding; conditions: GST fusion proteins on glutathione beads, highly purified recombinant S6K2
T1 construct: made in house; GST-p300 fragments: bacteria
Text: In FIG. 1A, S6K1 and S6K2 were immunoprecipitated from MCF-7 cells using polyclonal antibodies or pre-immune serum control. Co-immunoprecipitated p300 was detected by western blotting with specific antibody. In FIG. 1B, 293 cells were cotransfected with either EE-S6K1 and Gal4-p300 or empty vector and Gal4-p300. S6K1 was immunoprecipitated using anti-EE antibody and associated p300 was detected by western blotting with anti-Gal4 antibody. Input: approximately ten percent of soluble lysate. In FIG. 1C, NIH-3T3 cells were transfected with empty vector or EE-S6K2. Anti-EE immunoprecipitates were subjected to western blotting with anti-p300 antibody. Input: approximately one percent of soluble lysate. […] Endogenous S6K1 and S6K2 were immunoprecipitated from MCF-7 cells using polyclonal antibodies. Associated P/CAF was detected by western blotting with polyclonal antibodies (Upstate). In FIG. 1E, the full length p300 was used to produce several GST-fusion fragments as shown (Hasan et al. (2001) Mol. Cell. 7, 1221-1231). Expressed fusion proteins were coupled to glutathione beads and used in an in vitro GST pulldown assay with recombinant S6K2. After extensive washing, bound S6K2 was detected by western blotting. […]

recombinant S6K1 = experiment: In vitro acetylation with 14C labelled acetyl coenzyme A, S6K1; assay type: biochemical; conditions: 1 μg recombinant S6K1, HAT buffer with 14C AcCoA
Experimental: (§1) In FIG. 2A, recombinant S6 kinases were acetylated in vitro using the purified acetyltransferase domain of p300 or full length PCAF and ^14C-labelled acetyl CoA. Proteins were resolved by SDS-PAGE and acetylated proteins were analysed by phosphorimaging (Bio-rad). In FIG. 2B, recombinant S6K2 or GST were subject to in vitro acetylation reactions with p300 and 14C AcCoA. Recombinant PKB/Akt, PKCa, PDK1 and PI3K (p85a/p110a) were purified using baculovirus expression system. In vitro acetylation assay was carried out as previously described. In FIG. 2D, HEK 293 cells were transfected with S6 kinases in the absence or presence of Gal4-p300 as shown. Cells were treated with medium containing either solvent control or TSA to a final concentration of 660 nM for twelve hours prior to harvesting. Recombinant S6 kinases were immunoprecipitated using the EE-antibody and acetylated S6 kinase was detected by western blotting with polyclonal acetylated lysine antibodies (Upstate). The level of immunoprecipitated S6K1 and S6K2 was analysed by reprobing the membranes with specific antibodies. The expression of Gal4-p300 was tested in total lysates using anti-Gal4 antibodies.
(§2) Since S6Ks can interact with a region within, or adjacent to the acetyltransferase domain of p300 we hypothesized that they may in fact be targeted by its enzymatic activity. […] We detected weak, but reproducible acetylation of PKCa.

recombinant S6K2 = experiment: In vitro acetylation with 14C labelled acetyl coenzyme A, S6K2; assay type: biochemical; conditions: 1 μg recombinant S6K2, HAT buffer with 14C AcCoA
Experimental: as §1, §2

T1 sequence (Q9UBS0 with tags, fused parts or gaps A420V): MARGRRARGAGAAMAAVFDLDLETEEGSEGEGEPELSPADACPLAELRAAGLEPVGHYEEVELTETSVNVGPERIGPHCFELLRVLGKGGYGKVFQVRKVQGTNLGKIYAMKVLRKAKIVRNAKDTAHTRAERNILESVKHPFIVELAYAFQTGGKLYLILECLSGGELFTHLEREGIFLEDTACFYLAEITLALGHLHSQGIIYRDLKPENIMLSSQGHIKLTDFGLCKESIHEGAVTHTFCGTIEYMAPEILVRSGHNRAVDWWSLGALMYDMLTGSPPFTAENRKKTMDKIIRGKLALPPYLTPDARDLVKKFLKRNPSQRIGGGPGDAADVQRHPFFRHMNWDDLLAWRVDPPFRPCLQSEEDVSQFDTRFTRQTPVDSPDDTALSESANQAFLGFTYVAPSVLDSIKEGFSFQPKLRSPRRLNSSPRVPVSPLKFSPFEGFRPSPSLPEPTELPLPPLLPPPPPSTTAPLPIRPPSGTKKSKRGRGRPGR

B1: p300 domain 4: active domain of p300 acetyltransferase, amino acid 1,459 to 1,892 (SEQ ID NO: 6), contains part of the acetyltransferase domain (protein, listed as Homo sapiens)
chain: KPKRLQEWYKKMLDKAVSERIVHDYKDIFKQATEDRLTSAKELPYFEGDFWPNVLEESIKELEQEEEERKREENTSNESTDVTKGDSKNAKKKNNKKTSKNKSSLSRGNKKKPGMPNVSNDLSQKLYATMEKHKEVFFVIRLIAGPAANSLPPIVDPDPLIPCDLMDGRDAFLTLARDKHLEFSSLRRAQWSTMCMLVELHTQSQDRFVYTCNECKHHVETRWHCTVCEDYDLCITCYNTKNHDHKMEKLGLGLDDESNNQQAAATQSPGDSRRLSIQRCIQSLVHACQCRNANCSLPSCQKMKRVVQHTKGCKRKTNGGCPICKQLIALCCYHAKHCQENKCPVPFCLNIKQKLRQQQLQHRLQQAQMLRRRMASMQRTGVVGQQQGLPSPTPATPTTPTGQQPTTPQTPQPTSQPQPTPPNSMPPYLPRTQA
modifications: GST fusion partner
- binding of S6K2 to p300 domains (S6K2): selective binding
- acetylation of S6K1 (14C acetyl incorporation) (recombinant S6K1): acetyl groups were indeed incorporated
- acetylation of S6K2 (14C acetyl incorporation) (recombinant S6K2): acetyl groups were indeed incorporated
